From article PMC12214486

Columns and labels:
[1] = target: T1, DNA polymerase iota catalytic core (UniProt Q9UNA4 26-443); assay: X-ray crystallography
T1 sequence: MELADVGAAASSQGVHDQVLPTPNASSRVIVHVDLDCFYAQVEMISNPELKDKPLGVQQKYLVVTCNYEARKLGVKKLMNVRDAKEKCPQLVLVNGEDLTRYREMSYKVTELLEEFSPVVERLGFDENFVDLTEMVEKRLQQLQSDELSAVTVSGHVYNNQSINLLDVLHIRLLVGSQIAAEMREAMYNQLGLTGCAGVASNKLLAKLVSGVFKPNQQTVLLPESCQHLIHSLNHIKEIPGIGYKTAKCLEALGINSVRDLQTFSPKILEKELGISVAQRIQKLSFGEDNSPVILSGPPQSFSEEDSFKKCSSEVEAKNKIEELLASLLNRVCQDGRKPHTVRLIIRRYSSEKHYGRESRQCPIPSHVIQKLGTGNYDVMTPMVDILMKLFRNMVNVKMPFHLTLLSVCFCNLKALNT

[2] = target: T1, DNA polymerase iota catalytic core; assay: X-ray crystallography; remark: listed apart in the source
[3] = target: T1, DNA polymerase iota catalytic core; assay: X-ray crystallography; remark: listed apart in the source
[4] = target: T1, DNA polymerase iota catalytic core; assay: time-lapse X-ray crystallography

B1: self-annealed 19-mer product DNA (pre-translocation) (dsDNA)
DNA 1: TCAAGGGTCCTAGGACCCT
DNA 2: TCAAGGGTCCTAGGACCCT
B1: binds [1].

B2: self-annealed 17-mer product DNA (post-translocation) (dsDNA)
DNA 1: TCAAGGGTCCGGACCCT
DNA 2: TCAAGGGTCCGGACCCT
B2: binds [2].

B3: self-annealed 18-mer substrate DNA, template A (dsDNA)
DNA 1: TCAAGGGTCCTAGGACCC
DNA 2: TCAAGGGTCCTAGGACCC
B3: binds [3].

B4: product DNA formed in crystallo from 18-mer plus dTTP (dsDNA)
DNA 1: TCAAGGGTCCTAGGACCCT
DNA 2: TCAAGGGTCCTAGGACCCT
B4: binds [4].
